The target of the experiment is T1, preassembled pyrene-actin filaments (Gallus gallus, UniProt P68139).
T1 construct: Mince 2 kg of fresh, boneless, skinless chicken breast in a pre-chilled meat grinder; from tissue; host or cells: chicken breast (skeletal) muscle, via acetone powder
As to the kind of experiment: pyrene actin assay (decrease in fluorescence of filamentous pyrene-actin on addition of cofilin). Format: biochemical, chicken. The note with it: addition of stoichiometric amounts of cofilin to preassembled pyrene-actin filaments; FIG. 3. From the text: The effect of cofilin on preassembled pyrene-actin filaments is monitored. Two cofilin activities—binding to actin polymer and enhancing depolymerization—combine to reduce the relative fluorescence intensity. Addition of stoichiometric amounts of cofilin results in a 3-5 fold reduction in fluorescence intensity. In both these assays, any inhibitor will result in an increase in relative fluorescence intensity. For both graphs, the x-axes show cycle number (1 cycle/30 sec) and the y-axes reflect fluorescence in arbitrary units..
Assays for the interaction of A. fumigatus cofilin and any other cofilin with actin in 384-well plates using a fluorescence as the detection means have been developed. […]
Upon addition of cofilin to filamentous pyrene-actin, two well-characterized biochemical activities can be monitored. First, cofilin binds to the filaments and partially quenches the pyrene fluorescence. Second, it induces filament disassembly, further decreasing pyrene fluorescence. The decrease in fluorescence that results when cofilin is added to filamentous actin is monitored (FIG. 3). An inhibitor of the interaction of cofilin with pyrene-actin will result in an increase in fluorescence. […]
Thaw Actin, Pyrene-Actin and Cofilin pellets on ice or at room temp. […] Take readings at OD290. […]
Add 25 ul of sample into each well. […] Take Pyrene-Kinetic readings (Fluorostar setting) at 150 cycles, 360 to […].

B1: A. fumigatus cofilin: proteins or polypeptides present in A. fumigatus that are capable of binding actin; amino acid sequence SEQ ID NO:2; expressed in E. coli (protein, listed as Aspergillus fumigatus)
chain: MALASGVSIADECITAFNDFRMSGNKANKTKFIIFKIADNKKEVVIDEVSQEEDYEVFRSRLEATKDSKGNPAPRYAVYDVEYDLGGGEGKRSKIVFISWVPSDTPTLWSMIYASTRENLKNALNIHTSIHADDKGDIEWKTVLAEASGGKAGK
modifications: Cofilin sequence
notes: expressed in E. coli
On to B1, for which the “reduction in fluorescence intensity” value is given as 3-5 fold.
